Seven compounds from US7217865B2, “Transgenic high tryptophan plants” (Monsanto Technology LLC, priority 2001, dated 2007) can be followed below.

Read-outs that look alike come from different tables or passages of the source.

For data set [1], the target named is Agrobacterium tumefaciens anthranilate synthase variant S51F, SEQ ID NO:60 (Agrobacterium fabrum, UniProt A9CI26, S51F). Briefly: Anthranilate synthase enzyme assay and kinetic analysis, S51F mutant. The data set is classed as biochemical. An excerpt:
(§1) Site directed mutagenesis was used to generate ten single amino acid substitutions six sites. The mutations were introduced into the Agrobacterium tumefaciens AS in pMON34705 using the QuikChange™ Site-Directed Mutagenesis Kit (Stratagene). The primers used for site directed mutagenesis were SEQ ID NO:9–42 (FIG. 7; F=forward, R=reverse). Each primer sequence is specific for alteration of the nucleic acid at a specific location in the sequence and thus changing the encoded codon to code for a new amino acid. For example, S51C designates a change from serine to cysteine at amino acid position 51 in the Agrobacterium tumefaciens AS peptide sequence.
(§2) Following mutagenesis the sequence of the entire gene was reconfirmed and the variants expressed and purified from E. coli as described below for the wild type enzyme. The resultant plasmids comprising mutant Agrobacterium tumefaciens AS are suitably cloned into a plasmid for overproduction of protein using the T7 expression system as described in Example 1.
(§3) Agrobacterium tumefaciens AS wild type and mutant enzymes were expressed in E. coli as described in Example 1. The purification of all the Agrobacterium tumefaciens AS enzymes, including wild type and mutants therof, was performed at 4° C. The cells (approximate wet weight of 1 g) were suspended in 20 ml of purification buffer (50 mM potassium phosphate, pH […], 10 mM 2-mercaptoethanol, 10% glycerol) and lysed by ultrasonication (Branson sonifier Cell Disruptor, W185). Supernatant was collected after centrifugation of the homogenate at 20,000× g for 15 min. The supernatant was subjected to ammonium sulfate fractionation (30 to 65% saturation). The precipitate was collected after centrifugation at 20,000× g for […] and dissolved in 3 ml of the purification buffer and then loaded as a whole on an Econo-Pac 10DG desalting column, pre-equilibrated with the same buffer. Fractions containing the enzyme were detected by the developed assay and pooled. The pooled enzyme (4.3 mls) was loaded on a 10 ml DEAE Sephacel (Pharmacia Biotech) column (1.5×7.5 cm) equilibrated with the same buffer. The column was washed with 30 ml of the purification buffer and the enzyme was eluted with 30 ml of 50 mM NaCl in the same buffer. Fractions containing high AS activity were pooled and precipitated by 65% ammonium sulfate saturation and isolated and desalted as above. Fractions containing the enzyme were pooled and stored at −80° C.
(§4) The standard assay for Agrobacterium tumefaciens AS was performed at 25° C. in an assay buffer containing 100 mM potassium phosphate, pH 7.0, 1 0 mM MgCl2, 1 mM dithiothreitol, 200 μM chorismate and 10 mM L-glutamine. The reaction was started by adding 30 μl of enzyme to the reaction mixture and mixing. The formation of anthranilate was directly monitored by the absorbance increase at […] for 3 min. Initial rate of reaction was calculated as unit absorbance increase per second based on the slope of the absorbance change over the reaction time. Km for chorismate (Km^Cho) was determined in the total volume of 1 ml assay buffer containing 100 mM potassium phosphate, pH 7.0, 10 mM MgCl2, 1 mM dithiothreitol with 10 mM L-glutamine and varying the concentration of chorismate between 2.5–100 μM chorismate. […] Kinetic parameters and IC50 of AS were calculated after fitting the data to a non-linear regression program (GraFit).

Data set [2] deals with Agrobacterium tumefaciens anthranilate synthase variant S50K, SEQ ID NO:69 (Agrobacterium fabrum, UniProt A9CI26, S50K). Briefly: Anthranilate synthase enzyme assay and kinetic analysis, S50K mutant. The format is biochemical.
Source text: as §1, §2, §3, §4

Data set [3] concerns the target Agrobacterium tumefaciens anthranilate synthase variant P293A, SEQ ID NO:63 (Agrobacterium fabrum, UniProt A9CI26, P293A). Briefly: Anthranilate synthase enzyme assay and kinetic analysis, P293A mutant. The format is biochemical.
Source text: as §1, §2, §3, §4

For data set [4], the target named is Agrobacterium tumefaciens anthranilate synthase (AgroAS), wild type, SEQ ID NO:4 (Agrobacterium fabrum, UniProt A9CI26). Briefly: Anthranilate synthase enzyme assay and kinetic analysis, wild type. The format is biochemical. The procedure: as §3
(§5) The standard assay for Agrobacterium tumefaciens AS was performed at 25° C. in an assay buffer containing 100 mM potassium phosphate, pH 7.0, 1 0 mM MgCl2, 1 mM dithiothreitol, 200 μM chorismate and 10 mM L-glutamine. The reaction was started by adding 30 μl of enzyme to the reaction mixture and mixing. The formation of anthranilate was directly monitored by the absorbance increase at […] for 3 min. Initial rate of reaction was calculated as unit absorbance increase per second based on the slope of the absorbance change over the reaction time. Km for chorismate (Km^Cho) was determined in the total volume of 1 ml assay buffer containing 100 mM potassium phosphate, pH 7.0, 10 mM MgCl2, 1 mM dithiothreitol with 10 mM L-glutamine and varying the concentration of chorismate between 2.5–100 μM chorismate. The Km for glutamine (Km^Gln) was determined in the total volume of 1 ml assay buffer containing 100 mM potassium phosphate, pH 7.0, 10 mM MgCl2, 1 mM dithiothreitol with 200 μM chorismate and varying the concentration of L-glutamine between 0.1–2 mM L-glutamine. IC50 for tryptophan (IC50TrP) was determined with in the total volume of 1 ml assay buffer containing 100 mM potassium phosphate, pH 7.0, 10 mM MgCl2, 1 mM dithiothreitol, 10 mM L-glutamine, 200 μM chorismate and varying the concentration of L-tryptophan between 0.1–10 mM L-tryptophan. Kinetic parameters and IC50 of AS were calculated after fitting the data to a non-linear regression program (GraFit).

Data set [5] addresses Agrobacterium tumefaciens anthranilate synthase variant S51C, SEQ ID NO:61 (Agrobacterium fabrum, UniProt A9CI26, S51C). Briefly: Anthranilate synthase enzyme assay and kinetic analysis, S51C mutant. The data set is classed as biochemical.
Source text: as §1, §2, §3, §4

Data set [6] addresses Agrobacterium tumefaciens anthranilate synthase variant V48F, SEQ ID NO:58 (Agrobacterium fabrum, UniProt A9CI26, V48F). Briefly: Anthranilate synthase enzyme assay and kinetic analysis, V48F mutant. The data set is classed as biochemical.
Source text: as §1, §2, §3, §4

Data set [7] addresses Agrobacterium tumefaciens anthranilate synthase variant N52F, SEQ ID NO:62 (Agrobacterium fabrum, UniProt A9CI26, N52F). Briefly: Anthranilate synthase enzyme assay and kinetic analysis, N52F mutant. The data set is classed as biochemical.
Source text: as §1, §2, §3, §4

Data set [8] addresses Agrobacterium tumefaciens anthranilate synthase variant V48Y, SEQ ID NO:59 (Agrobacterium fabrum, UniProt A9CI26, V48Y). Briefly: Anthranilate synthase enzyme assay and kinetic analysis, V48Y mutant. The format is biochemical.
Source text: as §1, §2, §3, §4

In data set [9] the target is Agrobacterium tumefaciens anthranilate synthase variant P293G, SEQ ID NO:64 (Agrobacterium fabrum, UniProt A9CI26, P293G). Briefly: Anthranilate synthase enzyme assay and kinetic analysis, P293G mutant. The format is biochemical.
Source text: as §1, §2, §3, §4

Data set [10] has as its system NC(=O)CC[C@H](N)C(=O)O. Briefly: Anthranilate synthase enzyme assay and kinetic analysis, wild type. The data set is classed as biochemical, Agrobacterium tumefaciens. Conditions: other: wild type, pH 7.0, 200 μM chorismate, 0.1–2 mM L-glutamine, 25.0 °C. As for the experimental part:
as §3, §5

The subject of data set [11] is C=C(O[C@@H]1C=C(C(=O)O)C=C[C@H]1O)C(=O)O. The data set is described as above. The format is biochemical, Agrobacterium tumefaciens. Conditions: other: wild type, 25° C., pH 7.0, 10 mM L-glutamine, 2.5–100 μM chorismate. The procedure: as §3, §5
In data set [12] the test system is NC(=O)CC[C@H](N)C(=O)O. Briefly: Anthranilate synthase enzyme assay and kinetic analysis, N52F mutant. Conditions: other: N52F, pH 7.0, 200 μM chorismate, 0.1–2 mM L-glutamine, 25.0 °C. The format is biochemical, Agrobacterium tumefaciens.
Source text: as §1, §2, §3, §4

For data set [13], the system named is C=C(O[C@@H]1C=C(C(=O)O)C=C[C@H]1O)C(=O)O. Described as above. Conditions: other: N52F, pH 7.0, 10 mM L-glutamine, 2.5–100 μM chorismate, 25.0 °C. The format is biochemical, Agrobacterium tumefaciens.
Source text: as §1, §2, §3, §4

The test system of data set [14] is NC(=O)CC[C@H](N)C(=O)O. Briefly: Anthranilate synthase enzyme assay and kinetic analysis, P293A mutant. The data set is classed as biochemical, Agrobacterium tumefaciens. Conditions: other: P293A, pH 7.0, 200 μM chorismate, 0.1–2 mM L-glutamine, 25.0 °C.
Source text: as §1, §2, §3, §4

The test system of data set [15] is C=C(O[C@@H]1C=C(C(=O)O)C=C[C@H]1O)C(=O)O. The description is as above. The data set is classed as biochemical, Agrobacterium tumefaciens. The settings on record: other: P293A, pH 7.0, 10 mM L-glutamine, 2.5–100 μM chorismate, 25.0 °C.
Source text: as §1, §2, §3, §4

Data set [16] deals with NC(=O)CC[C@H](N)C(=O)O. Briefly: Anthranilate synthase enzyme assay and kinetic analysis, P293G mutant. The data set is classed as biochemical, Agrobacterium tumefaciens. Conditions: other: P293G, pH 7.0, 200 μM chorismate, 0.1–2 mM L-glutamine, 25.0 °C.
Source text: as §1, §2, §3, §4

Data set [17] deals with C=C(O[C@@H]1C=C(C(=O)O)C=C[C@H]1O)C(=O)O. The description is as above. The settings on record: other: P293G, pH 7.0, 10 mM L-glutamine, 2.5–100 μM chorismate, 25.0 °C. The format is biochemical, Agrobacterium tumefaciens.
Source text: as §1, §2, §3, §4

The test system of data set [18] is NC(=O)CC[C@H](N)C(=O)O. Briefly: Anthranilate synthase enzyme assay and kinetic analysis, V48F mutant. The data set is classed as biochemical, Agrobacterium tumefaciens. Conditions: other: V48F, pH 7.0, 200 μM chorismate, 0.1–2 mM L-glutamine, 25.0 °C.
Source text: as §1, §2, §3, §4

In data set [19] the test system is C=C(O[C@@H]1C=C(C(=O)O)C=C[C@H]1O)C(=O)O. Described as above. The format is biochemical, Agrobacterium tumefaciens. The settings on record: other: V48F, pH 7.0, 10 mM L-glutamine, 2.5–100 μM chorismate, 25.0 °C.
Source text: as §1, §2, §3, §4

The subject of data set [20] is NC(=O)CC[C@H](N)C(=O)O. Briefly: Anthranilate synthase enzyme assay and kinetic analysis, V48Y mutant. The data set is classed as biochemical, Agrobacterium tumefaciens. The settings on record: other: V48Y, pH 7.0, 200 μM chorismate, 0.1–2 mM L-glutamine, 25.0 °C.
Source text: as §1, §2, §3, §4

Data set [21] has as its system C=C(O[C@@H]1C=C(C(=O)O)C=C[C@H]1O)C(=O)O. The description is as above. The format is biochemical, Agrobacterium tumefaciens. The settings on record: other: V48Y, pH 7.0, 10 mM L-glutamine, 2.5–100 μM chorismate, 25.0 °C.
Source text: as §1, §2, §3, §4

`N[C@@H](Cc1c[nH]c2ccccc12)C(=O)O` [L-tryptophan]: the IC50 (usually the concentration needed to halve the response being measured) in [1] was above 32000 µM; in data set [2] it was 0.1 µM; in data set [3] it was 14 µM; in [4], 5 µM; in [4] (read-out: IC50^trp, wild type, Table J (5-MT resistant clones)), 5 µM; in data set [5], 1500 µM. Moreover, the IC50 was determined as 150 µM in data set [6], 41 µM in [7], 650 µM in data set [8] and 17 µM in [9].
With “Agrobacterium tumefaciens anthranilate synthase (AgroAS), wild type, SEQ ID NO:4 (Agrobacterium fabrum str. C58)”, the Km (in general, the concentration of substrate that gives half-maximal velocity) with NC(=O)CC[C@H](N)C(=O)O [10] is 110 µM. In data set [11], the Km came out at 8.0 µM; the kcat (as a rule, the number of substrate molecules converted per active site and unit of time at saturation) came out at 0.43 s⁻¹; the kcat/Km (commonly the turnover number divided by the Michaelis constant) is 53700 M⁻¹ s⁻¹.
“Agrobacterium tumefaciens anthranilate synthase variant N52F, SEQ ID NO:62 (Agrobacterium fabrum str. C58; N52F)”: the Km with NC(=O)CC[C@H](N)C(=O)O [12] was determined as 40 µM. Besides, in data set [13], the Km was 5.5 µM, the kcat was found to be 0.21 s⁻¹ and the kcat/Km worked out at 38200 M⁻¹ s⁻¹.
“Agrobacterium tumefaciens anthranilate synthase variant P293A, SEQ ID NO:63 (Agrobacterium fabrum str. C58; P293A)”: the Km with NC(=O)CC[C@H](N)C(=O)O [14] came out at 160 µM. Also, in data set [15], the Km stood at 24 µM, the kcat came to 0.35 s⁻¹ and the catalytic efficiency (kcat/Km) was determined as 14600 M⁻¹ s⁻¹.
Turning to “Agrobacterium tumefaciens anthranilate synthase variant P293G, SEQ ID NO:64 (Agrobacterium fabrum str. C58; P293G)”, the Km in the data set with NC(=O)CC[C@H](N)C(=O)O [16] is 70 µM. In addition, in data set [17], the Km stood at 33 µM, the kcat was 0.48 s⁻¹ and the kcat/Km worked out at 14500 M⁻¹ s⁻¹.
Regarding “Agrobacterium tumefaciens anthranilate synthase variant V48F, SEQ ID NO:58 (Agrobacterium fabrum str. C58; V48F)”, the Km in the data set on NC(=O)CC[C@H](N)C(=O)O [18] is 80 µM. Besides, in data set [19], the Km was found to be 4.5 µM, the kcat is 0.24 s⁻¹ and the kcat/Km came to 53300 M⁻¹ s⁻¹.
For “Agrobacterium tumefaciens anthranilate synthase variant V48Y, SEQ ID NO:59 (Agrobacterium fabrum str. C58; V48Y)”, the Km in the data set on NC(=O)CC[C@H](N)C(=O)O [20] came out at 100 µM. In [21], the Km worked out at 4.2 µM, the kcat turned out to be 0.18 s⁻¹ and the kcat/Km turned out to be 42800 M⁻¹ s⁻¹.
